Measurements from patent US5849493, “Screening assay for compounds stimulating somatostatin transcription factor -1 binding to an STF-1 binding site” (Research Development Foundation).

Assays:
STF-1 + Pbx1 heterodimer [1] = target: T1, STF-1 + Pbx1 heterodimer (UniProt P52947;P40424 P52947:1-283,P40424:1-430); assay: EMSA; minimal effect on cooperativity; conditions: tags: STF-1 recombinant from E. coli; Pbx1 in vitro translated in reticulocyte lysate; label: 32P
Excerpt: Gel mobility shift assay using TSE II oligonucleotide plus STF-1 and/or Pbx as indicated over each lane. TNT, control lysate. […] Off-rate analysis of STF-1 and STF-1 Pbx complexes using somatostatin TSE II oligonucleotide as probe. Time (in minutes) after addition of excess unlabeled TSE II oligo as indicated. Complexes C1 and C2, corresponding to STF-1 monomer and STF-1/PBX heterodimer, respectively, as indicated. […] TSEII, wild-type TSE II oligonucleotide. P and FLAT, insulin I promoter elements which recognize STF-1 with high affinity. TSEI, somatostatin promoter element which binds STF-1. PBX, in vitro translated PBX protein added to binding reactions; STF, full length recombinant STF-1 protein. […] Brackets indicate consensus TAAT motifs which were targeted for mutagenesis. […] Transient transfection assay of GC cells using STF-1 and E2A-Pbx effector plasmids as indicated below each bar. […] Activities were normalized to co-transfected RSV-CAT control plasmid.
Gel mobility shift assays were performed exactly as described previously (20) using 0.1 ng of end-labeled double stranded oligonucleotide whose sequences are presented in FIG. 2C. For off-rate analysis, the TSEII probe was first incubated with the proteins at room temperature for 30 minutes, then a 1000-fold excess of unlabeled TSEII oligonucleotide was added and aliquots were loaded at various time points on a running gel. […]

STF-1 (IPF1/IDX-1/PDX1) [2] = target: T2, STF-1 (IPF1/IDX-1/PDX1) (UniProt P52947 P52947:1-283); assay: EMSA; high affinity site; conditions: tags: GST fusion (pGEX3X, E. coli), GST removable by factor Xa; label: 32P
T2 sequence (P52947 whole entry, the tested form may be a part, one chain of several): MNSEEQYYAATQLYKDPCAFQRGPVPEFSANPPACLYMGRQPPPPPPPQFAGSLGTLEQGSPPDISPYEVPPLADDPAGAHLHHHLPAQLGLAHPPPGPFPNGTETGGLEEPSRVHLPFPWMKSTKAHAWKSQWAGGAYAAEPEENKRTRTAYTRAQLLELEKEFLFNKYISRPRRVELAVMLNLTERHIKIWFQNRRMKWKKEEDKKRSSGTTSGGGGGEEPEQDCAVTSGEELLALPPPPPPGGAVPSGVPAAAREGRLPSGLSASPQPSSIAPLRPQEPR

STF-1 + Pbx1 heterodimer [3] = target: T1, STF-1 + Pbx1 heterodimer; assay: EMSA; no heteromeric complex; no synergy in reporter assay; conditions: tags: STF-1 recombinant from E. coli; Pbx1 in vitro translated in reticulocyte lysate; label: 32P
Protocol: (§1) Gel mobility shift assays were performed exactly as described previously (20) using 0.1 ng of end-labeled double stranded oligonucleotide whose sequences are presented in FIG. 2C. For off-rate analysis, the TSEII probe was first incubated with the proteins at room temperature for 30 minutes, then a 1000-fold excess of unlabeled TSEII oligonucleotide was added and aliquots were loaded at various time points on a running gel. In supershift assays, TU6 nuclear cell extract was preincubated with 1 µl of Pbx (11) or STF-antiserum (20) for 15 minutes at room temperature before adding the TSEII probe.
To determine whether Pbx and STF-1 can bind cooperatively to other STF-1 target sites besides TSEII, gel shift assays were performed with the recombinant STF-1 and Pbx proteins on the somatostatin TSEI or insulin P and Flat elements, sites which bind STF-1 and which are required for islet cell restricted expression of the rat somatostatin and insulin I genes, respectively, in pancreatic cells (FIG. 2D and FIG. 2E). In contrast to the TSEII element (FIG. 2D, lanes 1–4), no heteromeric STF-1-Pbx complex was observed on the TSEI, P or FLAT elements. Indeed, heteromeric STF-1 complexes are also undetectable when the TSEI, P, or FLAT elements are used in gel shift assays of crude pancreatic cell extracts (data not shown) (20). […]

[4] = target: STF-1 FPWMK to AAGGQ mutant (UniProt P52947 P52947:1-283, FPWMK to AAGGQ); assay: EMSA; wild-type binding activity; conditions: label: 32P
Sequence of STF-1 FPWMK to AAGGQ mutant (P52947 other isoform, or with tags, fused parts or gaps FPWMK to AAGGQ | mutant): as the sequence (P52947 whole entry, the tested form may be a part, one chain of several) above, with F119A, P120A, W121G, M122G, K123Q counted along it

STF-1 + Pbx1 heterodimer [5] = target: T1, STF-1 + Pbx1 heterodimer; assay: EMSA; no heteromeric complex; conditions: tags: STF-1 recombinant from E. coli; Pbx1 in vitro translated in reticulocyte lysate; label: 32P
Protocol: as §1
(§2) To determine whether Pbx and STF-1 can bind cooperatively to other STF-1 target sites besides TSEII, gel shift assays were performed with the recombinant STF-1 and Pbx proteins on the somatostatin TSEI or insulin P and Flat elements, sites which bind STF-1 and which are required for islet cell restricted expression of the rat somatostatin and insulin I genes, respectively, in pancreatic cells (FIG. 2D and FIG. 2E). In contrast to the TSEII element (FIG. 2D, lanes 1–4), no heteromeric STF-1-Pbx complex was observed on the TSEI, P or FLAT elements. Indeed, heteromeric STF-1 complexes are also undetectable when the TSEI, P, or FLAT elements are used in gel shift assays of crude pancreatic cell extracts (data not shown) (20).

STF-1 (IPF1/IDX-1/PDX1) [6] = target: T2, STF-1 (IPF1/IDX-1/PDX1); assay: EMSA; conditions: tags: GST fusion (pGEX3X, E. coli), GST removable by factor Xa; label: 32P
Protocol: as §1, §2

T1 sequence (P52947 whole entry, chain 1 of 2): as the sequence (P52947 whole entry, the tested form may be a part, one chain of several) above
T1 sequence (P40424 whole entry, chain 2 of 2): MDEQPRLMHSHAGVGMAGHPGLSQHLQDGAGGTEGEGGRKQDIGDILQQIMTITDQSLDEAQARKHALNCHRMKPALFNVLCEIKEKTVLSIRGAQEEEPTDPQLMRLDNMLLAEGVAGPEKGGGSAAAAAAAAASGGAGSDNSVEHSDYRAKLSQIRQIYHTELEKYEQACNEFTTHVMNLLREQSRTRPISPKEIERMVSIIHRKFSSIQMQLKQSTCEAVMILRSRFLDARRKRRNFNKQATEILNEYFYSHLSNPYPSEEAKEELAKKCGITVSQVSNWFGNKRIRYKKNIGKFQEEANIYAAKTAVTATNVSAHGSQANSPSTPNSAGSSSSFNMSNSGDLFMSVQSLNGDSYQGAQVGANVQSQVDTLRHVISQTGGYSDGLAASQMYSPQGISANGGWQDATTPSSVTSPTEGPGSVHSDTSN

B1: TSEII M3 (dsDNA)
DNA 1: GATCTCAGTAATTATACATGCA
DNA 2: GTACTGCATGTATAATTACTGA
B1: binds (STF-1 + Pbx1 heterodimer [1]).

B2: insulin I P element (dsDNA)
DNA 1: GATCTAGAGCCCTTAATGGGCCAAA
DNA 2: GATCTTTGGCCCATTAAGGGCTCTA
B2: binds (STF-1 (IPF1/IDX-1/PDX1) [2]); no binding (STF-1 + Pbx1 heterodimer [3]); binds [4].

B3: somatostatin TSEI (dsDNA)
DNA 1: GATCTTGCGAGGCTAATGGTGCG
DNA 2: GTACCGCACCATTAGCCTCGCAA
B3: no binding (STF-1 + Pbx1 heterodimer [5]); binds (STF-1 (IPF1/IDX-1/PDX1) [6]).
